Test results: patent US20250145711A1 (Janssen / Centocor, published 2025)

How the values were obtained:
[1] = target: T1, CD3 on primary human pan T cells (human, UniProt P07766 23-207); assay: flow cytometry, pan T-cells
T1 construct: on cells it stands in the TCR/CD3 complex; also called Pan T-cells (CD3-positive); endogenous CD3
Method: ELISA assays for binding to recombinant CD3 (TRCW5, SEQ ID NO: 39) were performed as above. Cell binding was performed using primary human T cell and Jurkat cells by flow cytometry. Briefly, E. coli expressed anti CD3 ScFv supernatants, either at room temperature, or 55° C., 60° C. or 65° C. heat treated samples.
Pan T-cells (CD3-positive) and Jurkat-CD3-negative cells were prepared by staining Jurkat-CD3-negative cells with CFSE while keeping pan T-cells unstained. Jurkat-CD3-negative cell suspensions were resuspended at 20 million cells per each 50 mL conical tube. Cells were harvested by centrifugation at 400×g for 5 minutes and resuspended in DPBS followed by washing 2× in DPBS. Cells were stained with 1:25,000 dilution for a final dye concentration of 0.02 uM CFSE (2 uL of staining solution to 50 mL of cell suspension). Cells were incubated for 10 minutes at room temperature and centrifuged for 5 minutes at 400×g. After removal of supernatant, 3 mL of HI-FBS were added to the cell pellet, mixed and centrifuged for 5 min at 400×g. Supernatant was removed and cells were resuspended in BD stain buffer at 2×10\hat{ }6 cells/mL and incubated on ice or 4 C protected from light. Human pan T cells were thawed at 37 C and transferred gently into a conical tube containing 15 mL of warm or RT culture media (RPMI+10% FBS). […] Cells were harvested by centrifugation at 400×g for 5 min and resuspended in culture media (RPMI+10% HI-FBS). Pan T-cells (without staining) were prepared at 2×10\hat{ }6 cells/mL in flow staining buffer. Equal volumes of CFSE stained Jurkat-CD3-negative cells and unstained T-cells (CD3-positive) cells were mixed and plated 50 uL/well into assay plates. 50 uL/well neat bacterial supernatant samples and control sample (CD3W36 ScFv) were added to each well and plates were incubated 1 hr at 4 C or. Cells were harvested by centrifugation at 400×g for 4 min and 150 uL staining buffer were added to all wells, followed by centrifugation at 400×g for 4 min to pellet cells. To each well, 150 uL staining buffer were added followed by centrifugation at 400×g for 4 minutes to pellet cells.

[2] = target: T2, TRCW5 antigen (CD3δε-Fc-Avi) (biotinylated (site not stated)); assay: ELISA after heat
T2 construct: also called recombinant CD3
T2 sequence (chain, as listed by the source mutant limits assumed): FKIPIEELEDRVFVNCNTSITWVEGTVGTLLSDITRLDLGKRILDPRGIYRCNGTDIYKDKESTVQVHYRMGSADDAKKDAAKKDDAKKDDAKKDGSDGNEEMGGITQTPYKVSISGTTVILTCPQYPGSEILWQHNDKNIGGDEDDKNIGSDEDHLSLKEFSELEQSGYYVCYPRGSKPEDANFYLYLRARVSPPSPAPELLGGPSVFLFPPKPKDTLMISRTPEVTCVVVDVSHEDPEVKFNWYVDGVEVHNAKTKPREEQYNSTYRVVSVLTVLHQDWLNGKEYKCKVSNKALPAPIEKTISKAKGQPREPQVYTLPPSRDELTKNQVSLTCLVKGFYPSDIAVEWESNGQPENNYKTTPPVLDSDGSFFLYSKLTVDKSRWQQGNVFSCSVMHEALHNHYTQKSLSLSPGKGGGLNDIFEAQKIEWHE

T1 sequence (P07766 23-207 limits assumed): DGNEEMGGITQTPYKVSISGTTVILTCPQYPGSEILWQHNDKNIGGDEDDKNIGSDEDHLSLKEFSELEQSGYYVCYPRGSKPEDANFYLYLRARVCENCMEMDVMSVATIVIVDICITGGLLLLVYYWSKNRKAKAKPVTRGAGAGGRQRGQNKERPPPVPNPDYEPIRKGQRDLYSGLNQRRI

B1: CD3B2044 (scFv)
scFv: QVQLVQSGAEVKKPGSSVKVSCKASGYTFTRSTMHWVRQAPGQGLEWIGYINPSSAYTNYNQKFQGRVTLTADKSTSTAYMELSSLRSEDTAVYYCASPQVHYDYNGFPYWGQGTLVTVSSGGSEGKSSGSGSESKSTGGSEIVLTQSPATLSASPGERVTLSCSASSSVSYMNWYQQKPGQSPRRWIYDSSKLASGVPARFSGSGSGRDYTLTISSLEPEDFAVYYCQQWSRNPPTFGGGTKVEIK
[1]
  % Binding retained on T-cells, 55° C.: 0.786 fraction
  % Binding retained on T-cells, 60° C.: 1.04 fraction
  % Binding retained on T-cells, 65° C.: 0.198 fraction
  % Binding retained on T-cells, RT: 1 fraction
[2]
  % Retained 55° C.: 103%
  % Retained 60° C.: 102%
  % Retained 65° C.: 14%

B2: CD3B2058 (scFv)
scFv: QVQLVQSGAEVKKPGSSVKVSCKASGYTFTRSTMHWVKQAPGQGLEWIGYINPSSAYTNYAQKFQGRVTLTADKSTSTAYMELSSLRSEDTAVYYCASPQVHYDYNGFPYWGQGTLVTVSSGGSEGKSSGSGSESKSTGGSEIVLTQSPATLSASPGERVTLSCSASSSVSYMNWYQQKPGTSPRRWIYDSSKLASGVPARFSGSGSGRDYTLTISSLEPEDFAVYYCQQWSRNPPTFGGGTKVEIK
[1]
  % Binding retained on T-cells, 55° C.: 1.05 fraction
  % Binding retained on T-cells, 60° C.: 0.808 fraction
  % Binding retained on T-cells, 65° C.: 0.174 fraction
  % Binding retained on T-cells, RT: 1 fraction
[2]
  % Retained 55° C.: 112%
  % Retained 60° C.: 110%
  % Retained 65° C.: 20%

B3: CD3B2063 (scFv)
scFv: QVQLVQSGAEVKKPGSSVKVSCKASGYTFTRSTMHWVKQAPGQGLEWIGYINPSSAYTNYAQKFQGRVTLTADKSTSTAYMELSSLRSEDTAVYYCASPQVHYDYNGFPYWGQGTLVTVSSGGSEGKSSGSGSESKSTGGSEIVLTQSPATLSASPGERVTLSCSASSSVSYMNWYQQKPGTAPRRLIYDSSKLASGVPARFSGSGSGRDYTLTISSLEPEDFAVYYCQQWSRNPPTFGGGTKVEIK
[1]
  % Binding retained on T-cells, 55° C.: 1 fraction
  % Binding retained on T-cells, 60° C.: 0.996 fraction
  % Binding retained on T-cells, 65° C.: 0.185 fraction
  % Binding retained on T-cells, RT: 1 fraction
[2]
  % Retained 55° C.: 108%
  % Retained 60° C.: 92%
  % Retained 65° C.: 11%

B4: CD3B2069 (scFv)
scFv: QVQLVQSGAEVKKPGSSVKVSCKASGYTFTRSTMHWVRQAPGQGLEWMGYINPSSAYTNYNQKFQGRVTLTADKSTSTAYMELSSLRSEDTAVYYCASPQVHYDYNGFPYWGQGTLVTVSSGGSEGKSSGSGSESKSTGGSEIVLTQSPATLSASPGERVTLSCSASSSVSYMNWYQQKPGTAPRRWIYDSSKLASGVPARFSGSGSGRDYTLTISSLEPEDFAVYYCQQWSRNPPTFGGGTKVEIK
[1]
  % Binding retained on T-cells, 55° C.: 1.08 fraction
  % Binding retained on T-cells, 60° C.: 1.48 fraction
  % Binding retained on T-cells, 65° C.: 0.11 fraction
  % Binding retained on T-cells, RT: 1 fraction
[2]
  % Retained 55° C.: 114%
  % Retained 60° C.: 109%
  % Retained 65° C.: 17%

B5: CD3B2073 (scFv)
scFv: QVQLVQSGAEVKKPGSSVKVSCKASGYTFTRSTMHWVRQAPGQGLEWMGYINPSSAYTNYNQKFQGRVTLTADKSTSTAYMELSSLRSEDTAVYYCASPQVHYDYNGFPYWGQGTLVTVSSGGSEGKSSGSGSESKSTGGSEIVLTQSPATLSASPGERVTLSCSASSSVSYMNWYQQKPGQAPRRWIYDSSKLASGVPARFSGSGSGRDYTLTISSLEPEDFAVYYCQQWSRNPPTFGGGTKVEIK
[1]
  % Binding retained on T-cells, 55° C.: 0.993 fraction
  % Binding retained on T-cells, 60° C.: 1.1 fraction
  % Binding retained on T-cells, 65° C.: 0.348 fraction
  % Binding retained on T-cells, RT: 1 fraction
[2]
  % Retained 55° C.: 113%
  % Retained 60° C.: 110%
  % Retained 65° C.: 27%

B6: CD3B2064 (scFv)
scFv: QVQLVQSGAEVKKPGSSVKVSCKASGYTFTRSTMHWVKQAPGQGLEWIGYINPSSAYTNYAQKFQGRVTLTADKSTSTAYMELSSLRSEDTAVYYCASPQVHYDYNGFPYWGQGTLVTVSSGGSEGKSSGSGSESKSTGGSEIVLTQSPATLSASPGERVTLSCSASSSVSYMNWYQQKPGQSPRRWIYDSSKLASGVPARFSGSGSGRDYTLTISSLEPEDFAVYYCQQWSRNPPTFGGGTKVEIK
[1]
  % Binding retained on T-cells, 55° C.: 1.17 fraction
  % Binding retained on T-cells, 60° C.: 0.741 fraction
  % Binding retained on T-cells, 65° C.: 0.241 fraction
  % Binding retained on T-cells, RT: 1 fraction
[2]
  % Retained 55° C.: 111%
  % Retained 60° C.: 107%
  % Retained 65° C.: 33%

B7: CD3B2071 (scFv)
scFv: QVQLVQSGAEVKKPGSSVKVSCKASGYTFTRSTMHWVRQAPGQGLEWMGYINPSSAYTNYNQKFQGRVTLTADKSTSTAYMELSSLRSEDTAVYYCASPQVHYDYNGFPYWGQGTLVTVSSGGSEGKSSGSGSESKSTGGSEIVLTQSPATLSASPGERVTLSCSASSSVSYMNWYQQKPGTAPRRLIYDSSKLASGVPARFSGSGSGRDYTLTISSLEPEDFAVYYCQQWSRNPPTFGGGTKVEIK
[1]
  % Binding retained on T-cells, 55° C.: 1.01 fraction
  % Binding retained on T-cells, 60° C.: 0.899 fraction
  % Binding retained on T-cells, 65° C.: 0.12 fraction
  % Binding retained on T-cells, RT: 1 fraction
[2]
  % Retained 55° C.: 103%
  % Retained 60° C.: 88%
  % Retained 65° C.: 4%

B8: CD3B2072 (scFv)
scFv: QVQLVQSGAEVKKPGSSVKVSCKASGYTFTRSTMHWVRQAPGQGLEWMGYINPSSAYTNYNQKFQGRVTLTADKSTSTAYMELSSLRSEDTAVYYCASPQVHYDYNGFPYWGQGTLVTVSSGGSEGKSSGSGSESKSTGGSEIVLTQSPATLSASPGERVTLSCSASSSVSYMNWYQQKPGQSPRRWIYDSSKLASGVPARFSGSGSGRDYTLTISSLEPEDFAVYYCQQWSRNPPTFGGGTKVEIK
[1]
  % Binding retained on T-cells, 55° C.: 0.872 fraction
  % Binding retained on T-cells, 60° C.: 1.27 fraction
  % Binding retained on T-cells, 65° C.: 0.0933 fraction
  % Binding retained on T-cells, RT: 1 fraction
[2]
  % Retained 55° C.: 117%
  % Retained 60° C.: 111%
  % Retained 65° C.: 17%

B9: CD3B2045 (scFv)
scFv: QVQLVQSGAEVKKPGSSVKVSCKASGYTFTRSTMHWVRQAPGQGLEWIGYINPSSAYTNYNQKFQGRVTLTADKSTSTAYMELSSLRSEDTAVYYCASPQVHYDYNGFPYWGQGTLVTVSSGGSEGKSSGSGSESKSTGGSEIVLTQSPATLSASPGERVTLSCSASSSVSYMNWYQQKPGQAPRRWIYDSSKLASGVPARFSGSGSGRDYTLTISSLEPEDFAVYYCQQWSRNPPTFGGGTKVEIK
[1]
  % Binding retained on T-cells, 55° C.: 1.05 fraction
  % Binding retained on T-cells, 60° C.: 0.997 fraction
  % Binding retained on T-cells, 65° C.: 0.296 fraction
  % Binding retained on T-cells, RT: 1 fraction
[2]
  % Retained 55° C.: 111%
  % Retained 60° C.: 105%
  % Retained 65° C.: 28%

B10: CD3B2065 (scFv)
scFv: QVQLVQSGAEVKKPGSSVKVSCKASGYTFTRSTMHWVKQAPGQGLEWIGYINPSSAYTNYAQKFQGRVTLTADKSTSTAYMELSSLRSEDTAVYYCASPQVHYDYNGFPYWGQGTLVTVSSGGSEGKSSGSGSESKSTGGSEIVLTQSPATLSASPGERVTLSCSASSSVSYMNWYQQKPGQAPRRWIYDSSKLASGVPARFSGSGSGRDYTLTISSLEPEDFAVYYCQQWSRNPPTFGGGTKVEIK
[1]
  % Binding retained on T-cells, 55° C.: 1.14 fraction
  % Binding retained on T-cells, 60° C.: 1.33 fraction
  % Binding retained on T-cells, 65° C.: 0.156 fraction
  % Binding retained on T-cells, RT: 1 fraction
[2]
  % Retained 55° C.: 115%
  % Retained 60° C.: 112%
  % Retained 65° C.: 48%
